Patent US20240400717A1, “Antibody Binding to CHI3L1 for Treating Cancer” (National Cheng Kung University, priority 2021, published 2024)

B1: #293R3-5: fully human anti-CHI3L1 mAb, Table 1 No. 5; heavy chain SEQ ID NO: 81, light chain SEQ ID NO: 82 (antibody, listed as Homo sapiens)
VH: EVQLVQSGAGVKKPGATVKISCKVSGYTFTDYYMHWVQQAPGKGLEWMGLVDPEDGETIYAEKFQGRVTITADTSTDTAYMELSSLRSEDTAVYYCATASPREEMPYYFDYWGQGTLVTVSS
light: SYELTQPPSVSVSPGQTASITCSGDILADQYASWYQQKPGQSPVLVIYHDTKRPSGVPERFSGSTSGNTATLTISGTQAMDEAAYYCQAWDINTAWVFGGGTQLTVLGQPKAAPSVTLFPPSSEELQANKATLVCLISDFYPGAVTVAWKADSSPVKAGVETTTPSKQSNNKYAASSYLSLTPEQWKSHRSYSCQVTHEGSTVEKTVAPTECS
B2: #R4-62: fully human anti-CHI3L1 mAb, Table 1 No. 37; heavy chain SEQ ID NO: 41, light chain SEQ ID NO: 42 (antibody, listed as Homo sapiens)
VH: EVQLVESGGGLVQPGGSLRLSCAASGLTFPNFAMTWVRQTPGKGLQWVSTISGRGDEPFYADSVKGRFTISRDNSKNMVYLHMNSLRAEDTAIYYCAKGGHFSSWDYWGQGTLVTVSS
light: NFMLTQPHSVSESPGKTVTISCTRSSGSIASNYVQWYQQRPDSAPTTVIYEDIERPSGVPDRFSGAIDSSANSASLTISGLQTEDEADYYCQSYDSSSYVFGTGTKVTVLGQPKANPTVTLFPPSSEELQANKATLVCLISDFYPGAVTVAWKADGSPVKAGVETTKPSKQSNNKYAASSYLSLTPEQWKSHRSYSCQVTHEGSTVEKTVAPTECS
B3: #R4-53: fully human anti-CHI3L1 mAb, Table 1 No. 33; heavy chain SEQ ID NO: 25, light chain SEQ ID NO: 26 (antibody, listed as Homo sapiens)
VH: QVQLVQSGAEVKKPGASVKVSCKASGYTFTSYYMHWVRQAPGQGLEWMGIINPSGGSTSYAQKFQGRVTMTRDTSTSTVYMELSSLRSEDTAVYYCASDIGDYGDYWGQGTTVTVSS
light: SYVLTQPPSVSVALGQTARITCGGNNIESKIVSWYQQKPGQAPVLVIFYDTDRPSGISERFSGSNSGNTATLTISRVEAGDEADYYCQVWDSNSDHVIFGGGTKLTVLGQPKAAPSVTLFPPSSEELQANKATLVCLISDFYPGAVTVAWKADSSPVKAGVETTTPSKQSNNKYAASSYLSLTPEQWKSHRSYSCQVTHEGSTVEKTVAPTECS
B4: #R4-63: fully human anti-CHI3L1 mAb, Table 1 No. 38; heavy chain SEQ ID NO: 49, light chain SEQ ID NO: 50 (antibody, listed as Homo sapiens)
VH: EVQLVQSGAEVKKPGATVKISCKVSGYTFTDYYMHWVQQAPGKGLEWMGLVDPEDGETIYAEKFQGRVTITADTSTDTAYMELSSLRSEDTAVYYCATIGRPPDYWGQGTTVTVSS
light: QSVLTQPPSVSAAPGQKVTISCSGSSSNIGNNYVSWYQQLPGTAPKLLIYDNNKRPSGIPDRFSGSKSGTSATLGITGLQTGDEADYYCGTWDSSLSVWVFGGGTKLTVLGQPKAAPSVTLFPPSSEELQANKATLVCLISDFYPGAVTVAWKADSSPVKAGVETTTPSKQSNNKYAASSYLSLTPEQWKSHKSYSCQVTHEGSTVEKTVAPTECS
B5: #R4-2: fully human anti-CHI3L1 mAb, Table 1 No. 7; heavy chain SEQ ID NO: 1, light chain SEQ ID NO: 2 (antibody, listed as Homo sapiens)
heavy: QVQLVQSGAEVKKPGSSVKVSCKASGGTFSSYAISWVRQAPGQGLEWMGGIIPIFGTANYAQKFQGRVTITADESTSTAYMELSSLRSEDTAVYYCARGDIEYYDILTGYYYYFDYWGQGTLVTVSS
light: SYVLTQPPSVSVAPGKAARVTCGGNDIGSKSVQWYQQKPGQAPVLVISYDNDRPSGIPERFSGSNSGNTATLTISRVEAGDEADYYCQVWDSTSDHYVFGTGTKVTVQGQPKANPTVTLFPPSSEELQANKATLVCLISDFYPGAVTVAWKADSSPVKAGVETTTPSKQSNNKYAASSYLSLTPEQWKSHRSYSCQVTHEGSTVEKTVAPTECS

Molecular target: T1, CHI3L1 binding to IL-13Rα2 on A549 cell line (Homo sapiens, UniProt P36222)
T1 construct: host or cells: A549 cells carry the receptor
T1 sequence (P36222 22-383): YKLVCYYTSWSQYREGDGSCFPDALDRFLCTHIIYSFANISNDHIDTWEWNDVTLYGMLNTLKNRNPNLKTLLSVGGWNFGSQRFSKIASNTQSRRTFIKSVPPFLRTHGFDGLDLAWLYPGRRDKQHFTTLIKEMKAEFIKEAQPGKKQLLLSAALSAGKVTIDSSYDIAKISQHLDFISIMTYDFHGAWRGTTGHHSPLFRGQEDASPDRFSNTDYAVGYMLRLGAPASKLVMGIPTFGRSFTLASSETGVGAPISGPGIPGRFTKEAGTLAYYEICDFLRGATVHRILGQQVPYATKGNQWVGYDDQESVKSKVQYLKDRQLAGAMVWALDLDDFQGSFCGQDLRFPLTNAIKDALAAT
Experiment: Functional screen: block of CHI3L1 binding to IL-13Rα2 on A549 cell line
Assay type: cell-based
Details: A549 cells, compared with CHI3L1 only
Excerpt: CHI3L1 is known to associate with different receptors, such as IL-13Rα2 (He et al. 2013), CRTH2 (Zhou et al. 2015), TMEM219 (Lee et al. 2016), and galectin-3 (Zhou et al. 2015). […] Therefore, purified antibody leads were functionally screened for their ability to block CHI3L1 binding to IL-13Rα2 on A549 cell line (FIG. 3A). […] The sequences and defied CDR regions among those monoclonal antibodies are listed and summarized in the sequences list (SEQ ID NOs: 1 to 88) and Table 2, respectively. Anti-CHI3L1 clone R4-2 heavy chain (SEQ ID NO: 1), anti-CHI3L1 clone R4-2 light chain (SEQ ID NO: 2), anti-CHI3L1 clone R4-4 heavy chain (SEQ ID NO: 9), anti-CHI3L1 clone R4-4 light chain (SEQ ID NO: 10), anti-CHI3L1 clone R4-39 heavy chain (SEQ ID NO: 17), anti-CHI3L1 clone R4-39 light chain (SEQ ID NO: 18), anti-CHI3L1 clone R4-53 heavy chain (SEQ ID NO: 25), anti-CHI3L1 clone R4-53 light chain (SEQ ID NO: 26), anti-CHI3L1 clone R4-54 heavy chain (SEQ ID NO: 33), anti-CHI3L1 clone R4-54 light chain (SEQ ID NO: 34), anti-CHI3L1 clone R4-62 heavy chain (SEQ ID NO: 41), anti-CHI3L1 clone R4-62 light chain (SEQ ID NO: 42), anti-CHI3L1 clone R4-63 heavy chain (SEQ ID NO: 49), anti-CHI3L1 clone R4-63 light chain (SEQ ID NO: 50), anti-CHI3L1 clone R4-93 heavy chain (SEQ ID NO: 57), anti-CHI3L1 clone R4-93 light chain (SEQ ID NO: 58), anti-CHI3L1 clone 293R3-2 heavy chain (SEQ ID NO: 65), anti-CHI3L1 clone 293R3-2 light chain (SEQ ID NO: 66), anti-CHI3L1 clone 293R3-4 heavy chain (SEQ ID NO: 73), anti-CHI3L1 clone 293R3-4 light chain (SEQ ID NO: 74), anti-CHI3L1 clone 293R3-5 heavy chain (SEQ ID NO: 81), and anti-CHI3L1 clone 293R3-5 light chain (SEQ ID NO: 82) are shown in sequence listing.

B1 was tested. Which CHI3L1 neutralizing activity did it give?
The CHI3L1 neutralizing activity was “best neutralizing activity”.

Which CHI3L1 neutralizing activity does the source give for B2 here?
Its CHI3L1 neutralizing activity is “best neutralizing activity”.

Which CHI3L1 neutralizing activity does the source give for B3 here?
Its CHI3L1 neutralizing activity is “best neutralizing activity”.

With B4 as the molecule, how does the CHI3L1 neutralizing activity read?
Its CHI3L1 neutralizing activity is “best neutralizing activity”.

For B5, which CHI3L1 neutralizing activity is on record?
Its CHI3L1 neutralizing activity is “best neutralizing activity”.
